This assay has as its target RAC1^P29S, purified (human, UniProt P63000 1-192, P29S). As to the kind of experiment: stopped-flow fluorimetry; mGppNHp-bound RAC1 with varying concentrations of His-IQGAP1 C794; kon, koff, Kd = koff/kon. The following applies: both partners purified.

B1: His-IQGAP1 C794 (C-terminal 794 amino acids of IQ motif-containing GTPase-activating protein 1) (domain or fragment)
chain: PPMVVVRKFVHLLDQSDQDFQEELDLMKMREEVITLIRSNQQLENDLNLMDIKIGLLVKNKITLQDVVSHSKKLTKKNKEQLSDMMMINKQKGGLKALSKEKREKLEAYQHLFYLLQTNPTYLAKLIFQMPQNKSTKFMDSVIFTLYNYASNQREEYLLLRLFKTALQEEIKSKVDQIQEIVTGNPTVIKMVVSFNRGARGQNALRQILAPVVKEIMDDKSLNIKTDPVDIYKSWVNQMESQTGEASKLPYDVTPEQALAHEEVKTRLDSSIRNMRAVTDKFLSAIVSSVDKIPYGMRFIAKVLKDSLHEKFPDAGEDELLKIIGNLLYYRYMNPAIVAPDAFDIIDLSAGGQLTTDQRRNLGSIAKMLQHAASNKMFLGDNAHLSIINEYLSQSYQKFRRFFQTACDVPELQDKFNVDEYSDLVTLTKPVIYISIGEIINTHTLLLDHQDAIAPEHNDPIHELLDDLGEVPTIESLIGESSGNLNDPNKEALAKTEVSLTLTNKFDVPGDENAEMDARTILLNTKRLIVDVIRFQPGETLTEILETPATSEQEAEHQRAMQRRAIRDAKTPDKMKKSKSVKEDSNLTLQEKKEKIQTGLKKLTELGTVDPKNKYQELINDIARDIRNQRRYRQRRKAELVKLQQTYAALNSKATFYGEQVDYYKSYIKTCLDNLASKGKVSKKPREMKGKKSKKISLKYTAARLHEKGVLLEIEDLQVNQFKNVIFEISPTEEVGDFEVKAKFMGVQMETFMLHYQDLLQLQYEGVAVMKLFDRAKVNVNLLIFLLNKKFYGK
notes: neither is stated here
For the molecule B1, the “fold higher binding affinity than that of PAK1 for RAC1^P29S” value was found to be 30 fold.
